Measurements reported in patent publication US20230045418A1 (AJOU UNIVERSITY INDUSTRY ACADEMIC COOPERATION FOUNDATION, published 2023).

Columns and labels:
[1] = molecular target: T1, cell-surface HPVE11-19/HLA-A*02:01 complex (HPV16; human); assay: flow cytometry, MDA-MB-231 pulsed with HPVE11-19 peptide, Alexa647 anti-mouse Fc
T1 construct: whole, on cells

[2] = molecular target: T2, cell-surface CMVP495-503/HLA-A*02:01 complex (human cytomegalovirus (CMV); human); assay: flow cytometry, MDA-MB-231 pulsed with 4 µM CMVP495-503 peptide, Alexa647 anti-mouse Fc
T2 construct: whole, on cells; also called CMV pp65 peptide complex
Protocol: After completion of pulsing, the cells were washed with a FACS buffer and then centrifuged at 1300 rpm for 3 minutes to remove the supernatant. […] After washing each sample with 1 ml of a FACS buffer, a F(ab′)2 antibody that specifically recognizes Alexa647 (red fluorescence)-conjugated mouse Fc was diluted 1:600 in 100 μl of a FACS buffer, followed by reaction at 4° C. for 30 minutes.

[3] = molecular target: T2, cell-surface CMVP495-503/HLA-A*02:01 …; assay: flow cytometry, 500 nM antibody on MDA-MB-231 cells pulsed with 50 µM peptide
[4] = molecular target: T2, cell-surface CMVP495-503/HLA-A*02:01 …; assay: flow cytometry, cells pulsed with 50 µM CMVP495-503 peptide, Alexa647 anti-mouse Fc
Protocol: After washing each sample with 1 ml of a FACS buffer, a F(ab′)2 antibody (Jackson ImmunoResearch, USA) that specifically recognizes Alexa647 (red fluorescence)-conjugated mouse Fc (Jackson ImmunoResearch, USA) was diluted 1:600 in 100 μl of a FACS buffer, followed by reaction at 4° C. for 30 minutes.
After completion of pulsing, the cells were washed with a FACS buffer and centrifuged at 1300 rpm for 3 minutes to remove the supernatant. […] After washing each sample with 1 ml of a FACS buffer, a F(ab′)2 antibody that specifically recognizes Alexa647 (red fluorescence)-conjugated mouse Fc was diluted 1:600 in 100 μl of a FACS buffer, followed by reaction at 4° C. for 30 minutes.

Binder	binding result [1]	binding result [2]	binding result [3]	binding result [4]
TCR-like antibody H9 #1 (IgG form, mouse IgG2a / mouse kappa) (antibody, V domains shown, also called #1 clone in IgG form) VH: EVQLVQSGAEVKKPGSSVKVSCKASGGTFSSYAISWVRQAPGQGLEWMGGIIPIFGTANYAQKFQGRVTITADESTSTAYMELSSLRSEDTAVYYCARGDLYYYDSSGYPLWYMDYWGQGTLVTVSS VL: ETTLTQSPGTLSLSPGERATLSCRASQSVSSSYLAWYQQKPGQAPRLVIYGASSRATGIPDRFSGSGSGTDFTLTISRLEPEDFAVYYCQDYSTYPAFTFGQGTKLEIR	no binding (tested: 50 nM)	binds	–	–
TCR-like antibody H9 #1-17 (IgG form, mouse IgG2a / mouse kappa) (antibody, V domains shown) VH: EVQLVQSGAEVKKPGSSVKVSCKASGGTFSSYAISWVRQAPGQGLEWMGSIIPIFGVAEYAHKFQGRVTITADESTSTAYMELSSLRSEDTAVYYCARGDLYYYDSSGYPLWYMDYWGQGTLVTVSS VL: ETTLTQSPGTLSLSPGERATLSCRASQSVSSSYLAWYQQKPGQAPRLVIYGASTRPTGIPDRFSGSGSGTDFTLTISRLEPEDFAVYYCQDYSTYPAFTFGQGTKLEIR	no binding (tested: 50 nM)	binds	–	–
TCR-like antibody H9 (chimeric full-length IgG, mouse IgG2a / mouse kappa) (antibody, V domains shown, also called H9 clone; H9 antibody) VH: EVQLVQSGAEVKKPGSSVKVSCKASGGTFSSYAISWVRQAPGQGLEWMGGIIPIFGTANYAQKFQGRVTITADESTSTAYMELSSLRSEDTAVYYCARGDLYYYDSSGYPRYYFDYWGQGTLVTVSS VL: ETTLTQSPGTLSLSPGERATLSCRASQSVSSSYLAWYQQKPGQAPRLVIYGASSRATGIPDRFSGSGSGTDFTLTISRLEPEDFAVYYCQHYSTSPGFTFGQGTKLEIR	no binding (tested: 50 nM)	–	binds	–
TCR-like antibody H9 #38 (IgG form, mouse IgG2a / mouse kappa) (antibody, V domains shown, also called #38 clone in IgG form) VH: EVQLVQSGAEVKKPGSSVKVSCKASGGTFSSYAISWVRQAPGQGLEWMGGIIPIFGTANYAQKFQGRVTITADESTSTAYMELSSLRSEDTAVYYCARGDLYYYDSSGYPWYYMDYWGQGTLVTVSS VL: ETTLTQSPGTLSLSPGERATLSCRASQSVSSSYLAWYQQKPGQAPRLVIYGASSRATGIPDRFSGSGSGTDFTLTISRLEPEDFAVYYCQHSYAFPGFTFGQGTKLEIR	–	–	–	binds
TCR-like antibody H9 #1-30 (IgG form, mouse IgG2a / mouse kappa) (antibody, V domains shown) VH: EVQLVQSGAEVKKPGSSVKVSCKASGGTFSSYAISWVRQAPGQGLEWMGSIIPIFGAAEYAQKFQGRVTITADESTSTAYMELSSLRSEDTAVYYCARGDLYYYDSSGYPLWYMDYWGQGTLVTVSS VL: ETTLTQSPGTLSLSPGERATLSCRASQSVSSSYLAWYQQKPGQAPRLVIYGASSRPRGIPDRFSGSGSGTDFTLTISRLEPEDFAVYYCQDYSTYPAFTFGQGTKLEIR	no binding (tested: 50 nM)	–	–	–
